Test results: paper PMC5405413, “The plant cell-wall enzyme AtXTH3 catalyses covalent cross-linking between cellulose and cello-oligosaccharide” (Scientific Reports, 2017)

T1: AtXTH22 (Arabidopsis thaliana, UniProt Q38857)
T1 construct: gene XTH22
T1 sequence (Q38857 22-284): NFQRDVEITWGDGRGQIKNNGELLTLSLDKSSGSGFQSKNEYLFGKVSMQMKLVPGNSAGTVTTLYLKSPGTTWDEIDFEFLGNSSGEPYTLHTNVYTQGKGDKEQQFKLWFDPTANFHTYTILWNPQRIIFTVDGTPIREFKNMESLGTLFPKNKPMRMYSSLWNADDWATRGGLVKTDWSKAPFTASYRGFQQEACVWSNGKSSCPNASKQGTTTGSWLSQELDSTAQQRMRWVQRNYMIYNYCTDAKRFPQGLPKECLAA

B1: AtXTH3 (Arabidopsis thaliana) (protein)
chain: RVFGGRGIEKFVTFGQNYIVTWGQSHVSTLHSGEEVDLYMDQSSGGGFESKDAYGSGLFEMRIKVPSGNTGGIVTAFYLTSKGGGHDEIDFEFLGNNNGKPVTLQTNLFLNGEGNREERFLLWFNPTKHYHTYGLLWNPYQIVFYVDNIPIRVYKNENGVSYPSKPMQVEASLWNGDDWATDGGRTKVNWSYSPFIAHFRDFALSGCNIDGRSNNVGACESSNYWWNAGNYQRLSGNEQKLYEHVRSKYMNYDYCTDRSKYQTPPRECY

Experiments:
AtXTH22 = target: T1, AtXTH22; experiment: transglycosylation, size-exclusion chromatography with fluorescence detection; assay type: biochemical; details: 25 μM acceptor; donor tamarind xyloglucan 2 mg/mL; 50 mM sodium acetate pH 6.0, 30 °C, 24 h; labelled compound
[1] = substrate: OC[C@@H](O)[C@@H](O[C@@H]1O[C@H](CO)[C@@H](O[C@@H]2O[C@H](CO)[C@@H](O[C@@H]3O[C@H](CO)[C@@H](O)[C@H](O)[C@H]3O)[C@H](O)[C@H]2O)[C@H](O)[C@H]1O)[C@H](O)[C@@H](O)CNc1ccccn1; experiment: transglycosylation, fluorescent product by anion-exchange LC after cellulase digestion; assay type: biochemical, Arabidopsis thaliana; details: acceptor, donor amorphous cellulose, 50 mM sodium acetate pH 5.0, 30 °C, 6 h, labelled compound
Description: (§1) transglycosylation, fluorescent product by anion-exchange LC after cellulase digestion on AtXTH3 | Michaelis constant (KM) and turnover number (kcat) for acceptor oligosaccharides (left: GGGG-AP; right: XXXG-AP)

[2] = substrate: OC[C@@H](O)[C@@H](O[C@@H]1O[C@H](CO[C@H]2OC[C@@H](O)[C@H](O)[C@H]2O)[C@@H](O[C@@H]2O[C@H](CO[C@H]3OC[C@@H](O)[C@H](O)[C@H]3O)[C@@H](O[C@@H]3O[C@H](CO[C@H]4OC[C@@H](O)[C@H](O)[C@H]4O)[C@@H](O)[C@H](O)[C@H]3O)[C@H](O)[C@H]2O)[C@H](O)[C@H]1O)[C@H](O)[C@@H](O)CNc1ccccn1; experiment: as above; assay type: biochemical, Arabidopsis thaliana; details: acceptor, donor amorphous cellulose, 50 mM sodium acetate pH 5.0, 30 °C, 6 h, labelled compound
Description: as §1

| Molecule | transglycosylation, size-exclusion chromatography with fluorescence detection (AtXTH22) | Km [1] [µM] | kcat [1] | Km [2] [µM] | kcat [2] |
| --- | --- | --- | --- | --- | --- |
| OC[C@@H](O)[C@@H](O[C@@H]1O[C@H](CO[C@H]2OC[C@@H](O)[C@H](O)[C@H]2O)[C@@H](O[C@@H]2O[C@H](CO[C@H]3OC[C@@H](O)[C@H](O)[C@H]3O)[C@@H](O[C@@H]3O[C@H](CO[C@H]4OC[C@@H](O)[C@H](O)[C@H]4O)[C@@H](O)[C@H](O)[C@H]3O)[C@H](O)[C@H]2O)[C@H](O)[C@H]1O)[C@H](O)[C@@H](O)CNc1ccccn1 [XXXG-AP, aminopyridyl xyloglucan-heptasaccharide] | AtXTH22 almost exclusively transferred xyloglucans to xyloglucan oligosaccharides |  |  |  |  |
| B1 |  | 58.8 ± 8.4 | 8.0 ± 0.5 x10^-5 sec^-1 | 8.6 ± 2.3 | 9.0 ± 1.0 x10^-5 sec^-1 |
